Assay results as given in patent US20260209350A1 (Alector, published 2026).
Numbering of substitutions follows the chain as printed.

How the values were obtained:
[1] = target: T1, mouse TREM2 on cells (mouse, UniProt Q99NH8 19-227); assay: FACS, mTrem2 cells
T1 construct: whole, on cells; Used for the recombinant protein on BWZ/BW cells (with mouse DAP12) and for the native protein on mouse macrophages and dendritic cells; the cell type stands under assay; also called mTREM2; mTrem2
T1 sequence (looked up): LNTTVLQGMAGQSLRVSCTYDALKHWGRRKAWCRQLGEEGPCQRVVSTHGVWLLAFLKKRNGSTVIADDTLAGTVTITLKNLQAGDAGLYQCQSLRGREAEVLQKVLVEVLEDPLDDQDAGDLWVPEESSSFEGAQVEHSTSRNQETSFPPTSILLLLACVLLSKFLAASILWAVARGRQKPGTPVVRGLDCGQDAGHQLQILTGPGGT

[2] = target: T2, mouse TREM2 Fc fusion protein (mouse, UniProt Q99NH8 19-171); assay: ForteBio or MSD-SET, avid
T2 construct: also called mTREM2-Fc; not shown: Fc part not specified
T2 sequence (looked up): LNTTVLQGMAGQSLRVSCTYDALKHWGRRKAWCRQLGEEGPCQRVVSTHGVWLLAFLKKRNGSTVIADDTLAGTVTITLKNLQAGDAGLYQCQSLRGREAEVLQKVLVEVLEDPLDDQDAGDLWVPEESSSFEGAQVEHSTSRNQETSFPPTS

[3] = target: T3, human TREM2 Fc fusion protein (human, UniProt Q9NZC2 19-174); assay: ForteBio or MSD-SET, avid
T3 construct: also called hTREM2-Fc; not shown: Fc part not specified
T3 sequence: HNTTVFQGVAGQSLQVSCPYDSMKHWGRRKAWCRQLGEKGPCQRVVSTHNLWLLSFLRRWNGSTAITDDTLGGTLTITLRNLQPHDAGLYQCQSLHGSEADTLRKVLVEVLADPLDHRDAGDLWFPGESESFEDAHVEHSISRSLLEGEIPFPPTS

B1: Ab37 (antibody, human IgG1, V domains shown)
VH: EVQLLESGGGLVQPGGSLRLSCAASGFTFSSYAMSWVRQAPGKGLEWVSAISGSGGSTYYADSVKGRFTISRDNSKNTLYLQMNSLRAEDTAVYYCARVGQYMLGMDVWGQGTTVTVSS
VL: EIVLTQSPATLSLSPGERATLSCRASQSVSSYLAWYQQKPGQAPRLLIYDASNRATGIPARFSGSGSGTDFTLTISSLEPEDFAVYYCQQRAFLFTFGGGTKVEIK
notes: human IgG1
MFI [1]: 1430 MFI
binding result [2]: no binding
Kd [3]: 1.58 nM

B2: Ab76 (antibody, human IgG1, V domains shown)
VH: EVQLVESGGGLVKPGGSLRLSCAASGFTFSSYSMNWVRQAPGKGLEWVSSISSSSSYIYYADSVKGRFTISRDNAKNSLYLQMNSLRAEDTAVYYCARGGGRRGDNNWFDPWGQGTLVTVSS
VL: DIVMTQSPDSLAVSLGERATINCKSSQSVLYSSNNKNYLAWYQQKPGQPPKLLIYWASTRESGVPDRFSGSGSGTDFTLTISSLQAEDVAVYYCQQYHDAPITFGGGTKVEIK
notes: human IgG1
Kd [3]: 4.84 nM

B3: Ab86 (antibody, human IgG1, V domains shown)
VH: QVQLVESGGGVVQPGRSLRLSCAASGFTFSSYGMHWVRQAPGKGLEWVAVISYDGSNKYYADSVKGRFTISRDNSKNTLYLQMNSLRAEDTAVYYCAKDGVYYGLGNWFDPWGQGTLVTVSS
VL: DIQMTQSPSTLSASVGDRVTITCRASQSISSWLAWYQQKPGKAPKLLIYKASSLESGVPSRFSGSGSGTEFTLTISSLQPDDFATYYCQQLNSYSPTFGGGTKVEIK
notes: human IgG1
MFI [1]: 355 MFI
Kd [2]: 6.55 nM
Kd [3]: 3.89 nM

B4: Ab77 (antibody, human IgG1, V domains shown)
VH: QVQLVESGGGVVQPGRSLRLSCAASGFTFSSYGMHWVRQAPGKGLEWVAVISYDGSNKYYADSVKGRFTISRDNSKNTLYLQMNSLRAEDTAVYYCARGPPHEMDYWGQGTLVTVSS
VL: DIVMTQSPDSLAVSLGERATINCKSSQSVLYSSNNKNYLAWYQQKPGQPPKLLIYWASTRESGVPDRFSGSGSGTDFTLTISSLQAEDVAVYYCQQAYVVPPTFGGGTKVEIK
notes: human IgG1
MFI [1]: 1650 MFI
binding result [2]: no binding

B5: Ab24 (antibody, human IgG1, V domains shown)
VH: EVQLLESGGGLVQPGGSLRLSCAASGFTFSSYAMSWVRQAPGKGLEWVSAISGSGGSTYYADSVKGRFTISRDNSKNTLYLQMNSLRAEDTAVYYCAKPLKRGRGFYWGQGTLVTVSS
VL: DIQMTQSPSSLSASVGDRVTITCRASQSISSYLNWYQQKPGKAPKLLIYAASSLQSGVPSRFSGSGSGTDFTLTISSLQPEDFATYYCQQAFSPPPWTFGGGTKVEIK
notes: human IgG1
MFI [1]: 2760 MFI
Kd [2]: 9.32 nM
Kd [3]: 0.479 nM

B6: Ab85 (antibody, human IgG1, V domains shown)
VH: QVQLVESGGGVVQPGRSLRLSCAASGFTFSSYGMHWVRQAPGKGLEWVAVIWYDGSNKYYADSVKGRFTISRDNSKNTLYLQMNSLRAEDTAVYYCAKDLGGYYGGAAYGMDVWGQGTTVTVSS
VL: B5 VL with M4L, L11V, S28D, Y32W, N34A, A91E, F92V, S93D, P94Y, W97L
notes: human IgG1
MFI [1]: 1120 MFI
Kd [2]: 2.19 nM
Kd [3]: 5.72 nM

B7: Ab25 (antibody, human IgG1, V domains shown)
VH: not shown
VL: EIVLTQSPGTLSLSPGERATLSCRASQSVSSSYLAWYQQKPGQAPRLLIYGASSRATGIPDRFSGSGSGTDFTLTISRLEPEDFAVYYCQQDDRSPTFGGGTKVEIK
notes: human IgG1
MFI [1]: 2500 MFI
Kd [2]: 5.98 nM

B8: Ab29 (antibody, human IgG1, V domains shown)
VH: QVQLVESGGGVVQPGRSLRLSCAASGFTFSSYGMHWVRQAPGKGLEWVAVISYDGSNKYYADSVKGRFTISRDNSKNTLYLQMNSLRAEDTAVYYCARGQYYGGSGWFDPWGQGTLVTVSS
VL: B7 VL with D92P, D93G, R94A, S95V
notes: human IgG1
MFI [1]: 4520 MFI
Kd [2]: 3.27 nM
Kd [3]: 2.36 nM

B9: Ab30 (antibody, human IgG1, V domains shown)
VH: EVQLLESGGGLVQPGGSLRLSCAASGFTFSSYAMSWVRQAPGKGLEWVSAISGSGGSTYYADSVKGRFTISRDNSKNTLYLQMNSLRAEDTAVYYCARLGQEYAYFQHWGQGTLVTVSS
VL: DIQMTQSPSSLSASVGDRVTITCRASQSISSYLNWYQQKPGKAPKLLIYGASSLQSGVPSRFSGSGSGTDFTLTISSLQPEDFATYYCQQVYITPITFGGGTKVEIK
notes: human IgG1
binding result [2]: no binding
Kd [3]: 1.32 nM

B10: Ab83 (antibody, human IgG1, V domains shown)
VH: QVQLQQWGAGLLKPSETLSLTCAVYGGSFSGYYWSWIRQPPGKGLEWIGEIDHSGSTKYNPSLKSRVTISVDTSKNQFSLKLSSVTAADTAVYYCARVGVVVGRPGYSAFDIWGQGTMVTVSS
VL: B9 VL with L11V, S28G, Y32W, N34A, G50A, V91R, Y92N, I93S, T94L, I96L
notes: human IgG1
Kd [3]: 8.21 nM

B11: Ab82 (antibody, human IgG1, V domains shown)
VH: QVQLQESGPGLVKPSQTLSLTCTVSGGSISSGGYYWSWIRQHPGKGLEWIGYIYYSGSTVYNPSLKSRVTISVDTSKNQFSLKLSSVTAADTAVYYCARVSSSWYKAWGQGTMVTVSS
VL: B9 VL with L11V, S28G, Y32W, N34A, G50A, V91A, Y92S, I93T, T94F
notes: human IgG1
MFI [1]: 712 MFI
Kd [2]: 5.82 nM
Kd [3]: 11 nM

B12: Ab79 (antibody, human IgG1, V domains shown)
VH: EVQLVESGGGLVQPGGSLRLSCAASGFTFSSYSMNWVRQAPGKGLEWVSYISGSSSTIYYADSVKGRFTISRDNAKNSLYLQMNSLRAEDTAVYYCARGGRRHYGGMDVWGQGTTVTVSS
VL: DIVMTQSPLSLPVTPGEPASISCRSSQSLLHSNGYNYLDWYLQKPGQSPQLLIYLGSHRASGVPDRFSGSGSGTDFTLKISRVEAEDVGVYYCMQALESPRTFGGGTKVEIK
notes: human IgG1
MFI [1]: 738 MFI
binding result [2]: no binding
Kd [3]: 10.7 nM

B13: Ab73 (antibody, human IgG1, V domains shown)
VH: EVQLVQSGAEVKKPGESLKISCKGSGYSFTSYWIGWVRQMPGKGLEWMGIIYPGDSDTTYSPSFQGQVTISADKSISTAYLQWSSLKASDTAMYYCARAKMLDDGYAFDIWGQGTMVTVSS
VL: EIVMTQSPATLSVSPGERATLSCRASQSVSSNLAWYQQKPGQAPRLLIYGASTRATGIPARFSGSGSGTEFTLTISSLQSEDFAVYYCQQDDNYPYTFGGGTKVEIK
notes: human IgG1
MFI [1]: 1120 MFI
binding result [2]: no binding
Kd [3]: 4.1 nM

B14: Ab27 (antibody, human IgG1, V domains shown)
VH: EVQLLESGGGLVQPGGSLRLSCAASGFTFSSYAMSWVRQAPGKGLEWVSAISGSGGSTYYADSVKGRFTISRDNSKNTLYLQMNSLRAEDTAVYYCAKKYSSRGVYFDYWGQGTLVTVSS
VL: EIVLTQSPATLSLSPGERATLSCRASQSVSSYLAWYQQKPGQAPRLLIYDASNRATGIPARFSGSGSGTDFTLTISSLEPEDFAVYYCQQYNNFPPTFGGGTKVEIK
notes: human IgG1
MFI [1]: 2160 MFI
Kd [2]: 6.39 nM
Kd [3]: 1.33 nM

B15: Ab87 (antibody, human IgG1, V domains shown)
VH: QVQLQESGPGLVKPSETLSLTCTVSGGSISSYYWSWIRQPPGKGLEWIGSIYYSGSTNYNPSLKSRVTISVDTSKNQFSLKLSSVTAADTAVYYCARHGWDRVGWFDPWGQGTLVTVSS
VL: B14 VL with S31R, N92I, N93F, F94W
notes: human IgG1
MFI [1]: 1230 MFI
Kd [2]: 4.48 nM
Kd [3]: 9.51 nM

B16: Ab81 (antibody, human IgG1, V domains shown)
VH: QVQLVQSGAEVKKPGSSVKVSCKASGGTFSSYAISWVRQAPGQGLEWMGGIIPIFGTANYAQKFQGRVTITADESTSTAYMELSSLRSEDTAVYYCARDSGNYDYWSGALRYWGQGTLVTVSS
VL: B14 VL with Y91S, N92S, F94W, P96W
notes: human IgG1
MFI [1]: 400 MFI
binding result [2]: no binding
Kd [3]: 10.1 nM

B17: Ab80 (antibody, human IgG1, V domains shown)
VH: QVQLVQSGAEVKKPGSSVKVSCKASGGTFSSYAISWVRQAPGQGLEWMGGIIPIFGTANYAQKFQGRVTITADESTSTAYMELSSLRSEDTAVYYCARGGGTFWSGSWALYWGQGTLVTVSS
VL: B14 VL with N92V, F94W, P96F
notes: human IgG1
MFI [1]: 593 MFI
Kd [2]: 8.85 nM
Kd [3]: 5.72 nM

B18: Ab60 (antibody, human IgG1, V domains shown)
VH: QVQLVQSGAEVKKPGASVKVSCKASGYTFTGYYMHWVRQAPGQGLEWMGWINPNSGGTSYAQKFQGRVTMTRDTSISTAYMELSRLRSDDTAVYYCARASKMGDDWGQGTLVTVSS
VL: B14 VL with N53K, Y91R, N92A, N93S, F94M, P96I
notes: human IgG1
Kd [3]: 5.59 nM

B19: Ab41 (antibody, human IgG1, V domains shown)
VH: EVQLLESGGGLVQPGGSLRLSCAASGFTFSTYAMSWVRQAPGKGLEWVSAISGSGGSTYYADSVKGRFTISRDNSKNTLYLQMNSLRAEDTAVYYCARAMARKSVAFDIWGQGTMVTVSS
VL: B14 VL with A84T, Y91R, N92Y, N93A, F94L, P96I
notes: human IgG1
MFI [1]: 373 MFI
Kd [2]: 8.64 nM
Kd [3]: 2.14 nM

B20: Ab61 (antibody, human IgG1, V domains shown)
VH: QVQLVQSGAEVKKPGASVKVSCKASGYTFTSYGIHWVRQAPGQGLEWMGWISAYNGNTNYAQKLQGRVTMTTDTSTSTAYMELRSLRSDDTAVYYCARGGVPRVSYFQHWGQGTLVTVSS
VL: B14 VL with A51S, Y91A, N92F, F94R
notes: human IgG1
MFI [1]: 10500 MFI
Kd [3]: 4.61 nM

B21: Ab28 (antibody, human IgG1, V domains shown)
VH: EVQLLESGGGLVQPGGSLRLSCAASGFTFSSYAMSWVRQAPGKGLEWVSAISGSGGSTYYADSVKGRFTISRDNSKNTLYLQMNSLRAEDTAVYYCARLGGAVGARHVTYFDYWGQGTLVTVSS
VL: B14 VL with N53K, Y91R, N92Y, N93L, F94R, P96I
notes: human IgG1
MFI [1]: 5250 MFI
Kd [2]: 7.45 nM
Kd [3]: 0.915 nM

B22: Ab75 (antibody, human IgG1, V domains shown)
VH: not shown
VL: B14 VL with Y91V, N92S, F94Y, P96F
notes: human IgG1
MFI [1]: 276 MFI
binding result [2]: no binding
Kd [3]: 5.88 nM

B23: Ab74 (antibody, human IgG1, V domains shown)
VH: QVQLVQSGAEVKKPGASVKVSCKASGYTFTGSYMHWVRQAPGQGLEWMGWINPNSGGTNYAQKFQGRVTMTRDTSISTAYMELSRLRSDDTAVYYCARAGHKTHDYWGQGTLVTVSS
VL: B14 VL with Y91R, N92S, N93T, P96I
notes: human IgG1
MFI [1]: 1360 MFI
Kd [2]: 4.91 nM
Kd [3]: 9.43 nM
